Test results taken from patent US20140243268A1 (GEORGIA REGENTS RESEARCH INSTITUTE, published 2014).

Molecular target: T1, ErbB2 (UniProt P04626 23-1255, limits assumed)
T1 construct: also called Her2; HER2
Assay: not described (data not shown)

B1: Erbin1-693βgal, fusion protein containing the N-terminal 693 aa residues of Erbin and β-galactosidase (other, mouse, UniProt Q80TH2 1-693, looked up)
chain: MTTKRSLFVRLVPCRCLRGEEETVTTLDYSHCSLEQVPKEIFTFEKTLEELYLDANQIEELPKQLFNCQSLHKLSLPDNDLTTLPASIANLINLRELDVSKNGIQEFPENIKNCKVLTIVEASVNPISKLPDGFSQLLNLTQLYLNDAFLEFLPANFGRLTKLQILELRENQLKMLPKTMNRLTQLERLDLGSNEFTEVPEVLEQLSGLREFWMDGNRLTFIPGFIGSLRQLTYLDVSKNNIEMVEEGISTCENLQDFLLSSNSLQQLPETIGSLKNVTTLKIDENQLMYLPDSIGGLRSIEELDCSFNEIEALPSSIGQLTNMRTFAADHNYLQQLPPEIGNWKNITVLFLHCNKLETLPEEMGDMQKLKVINLSDNRLKNLPFSFTKLQQLTAMWLSDNQSKPLIPLQKETDTETQKMVLTNYMFPQQPRTEDVMFISDNESFNPALWEEQRKQRAQVAFECDEDKDEREAPPREGNLKRYPTPYPDELKNMVKTVQTIVHRLKDEETNEESGRDLKQHEDQQVVNKDKCVKTSESTTTKSKLDEREKYMNSVQKMSEPEAETNGGNLPVTASMKLSGNLKHIVNHDDVFEESEELSSDEEMKMAEMRPPLIESSINQPKVVALSNNKKDDAKDADSLSDEVTHNSNQNNSNCSSPSRMSDSVSLNTDSSQDTSLCSPVKQTPVDSNSKVR
notes: Expressed in erbin ΔC/ΔC mice; lacks residues 694-1450 of mouse Erbin, including the PDZ domain; not shown: β-galactosidase encoded by the inserted lacZ gene
binding result: no binding
